Test results taken from patent EP4803540A1 (FNCTBiotech Inc., dated 2026).

Target: T1, human CSF3 protein (human, UniProt P09919 31-207)
T1 construct: also called G-CSF; human colony-stimulating factor 3
T1 sequence: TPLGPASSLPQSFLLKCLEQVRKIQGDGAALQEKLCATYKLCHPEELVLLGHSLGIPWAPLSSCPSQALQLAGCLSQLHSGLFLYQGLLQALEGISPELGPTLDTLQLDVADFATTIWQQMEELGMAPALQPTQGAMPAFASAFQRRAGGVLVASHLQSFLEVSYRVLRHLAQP
Assay: high-mass MALDI MS of a mixture of Y41 antibody and human CSF3 protein; complexes of one or two CSF3 with one Y41

B1: C41 (or Y41) (antibody, human IgG1, kappa, V domains shown)
VH: EMQLVQSGAEARKPGSSVKVSCKASGYTFTNYGISWLRQTPGQGLEWMGWINPNSGGTIYAQKFQGRVTMTRDTPITTAYMELSTLRSEDTAVYYCSRGSGGAVPFDVWGQGTMVTVSS
VL: DIQMTQSPFSLSASVGDRVTITCRASQTISNRLNWYQHKPGKAPKLFIYYASSLQSGVPSRFSGSGSGTDFALTISSLQPEDFATYYCQQGYSSPRTFGQGTKVEIKR
notes: Human IgG1; the CDR numbers printed for Y41 disagree between places; also called 007A06; CSA1241
B1: binds.
